Key:
[1] = molecular target: human IL-18 receptor complex (IL-18Rα/β) (human) (UniProt Q13478)
[2] = molecular target: human recombinant IL-18-BP (human) (UniProt O95998)
[3] = molecular target: human recombinant IL-18-BP (human) (UniProt O95998); assay: cell-based or functional assay

recombinant human mature IL-18, sequence (Q14116 37-193): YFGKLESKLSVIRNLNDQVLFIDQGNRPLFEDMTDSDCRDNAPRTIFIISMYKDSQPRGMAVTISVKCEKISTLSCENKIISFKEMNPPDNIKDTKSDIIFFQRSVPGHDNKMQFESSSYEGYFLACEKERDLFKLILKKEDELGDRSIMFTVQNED
human recombinant IL-18-BP (human), sequence (O95998 31-194 limits assumed): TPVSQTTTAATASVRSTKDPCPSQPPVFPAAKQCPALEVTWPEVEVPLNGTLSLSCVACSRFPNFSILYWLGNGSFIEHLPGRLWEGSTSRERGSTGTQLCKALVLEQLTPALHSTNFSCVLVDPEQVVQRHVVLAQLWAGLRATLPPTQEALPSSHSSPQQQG
human IL-18 receptor complex (IL-18Rα/β) (human), sequence (Q13478 19-541, chain 1 of 2): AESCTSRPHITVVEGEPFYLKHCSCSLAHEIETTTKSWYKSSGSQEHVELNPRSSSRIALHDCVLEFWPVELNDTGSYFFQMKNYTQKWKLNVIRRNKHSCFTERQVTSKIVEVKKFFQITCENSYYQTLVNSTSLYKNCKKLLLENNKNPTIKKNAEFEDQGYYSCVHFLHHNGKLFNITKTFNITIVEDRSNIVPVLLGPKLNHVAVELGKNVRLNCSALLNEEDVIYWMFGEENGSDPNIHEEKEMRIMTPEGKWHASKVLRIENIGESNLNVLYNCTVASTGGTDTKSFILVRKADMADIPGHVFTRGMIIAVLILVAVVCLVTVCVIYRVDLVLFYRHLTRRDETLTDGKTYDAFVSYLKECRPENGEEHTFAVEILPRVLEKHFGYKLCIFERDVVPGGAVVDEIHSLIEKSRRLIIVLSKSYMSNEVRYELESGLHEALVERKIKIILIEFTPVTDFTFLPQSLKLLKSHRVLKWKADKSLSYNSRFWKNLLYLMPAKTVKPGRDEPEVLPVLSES
human IL-18 receptor complex (IL-18Rα/β) (human), sequence (O95256 20-599, chain 2 of 2, further chain): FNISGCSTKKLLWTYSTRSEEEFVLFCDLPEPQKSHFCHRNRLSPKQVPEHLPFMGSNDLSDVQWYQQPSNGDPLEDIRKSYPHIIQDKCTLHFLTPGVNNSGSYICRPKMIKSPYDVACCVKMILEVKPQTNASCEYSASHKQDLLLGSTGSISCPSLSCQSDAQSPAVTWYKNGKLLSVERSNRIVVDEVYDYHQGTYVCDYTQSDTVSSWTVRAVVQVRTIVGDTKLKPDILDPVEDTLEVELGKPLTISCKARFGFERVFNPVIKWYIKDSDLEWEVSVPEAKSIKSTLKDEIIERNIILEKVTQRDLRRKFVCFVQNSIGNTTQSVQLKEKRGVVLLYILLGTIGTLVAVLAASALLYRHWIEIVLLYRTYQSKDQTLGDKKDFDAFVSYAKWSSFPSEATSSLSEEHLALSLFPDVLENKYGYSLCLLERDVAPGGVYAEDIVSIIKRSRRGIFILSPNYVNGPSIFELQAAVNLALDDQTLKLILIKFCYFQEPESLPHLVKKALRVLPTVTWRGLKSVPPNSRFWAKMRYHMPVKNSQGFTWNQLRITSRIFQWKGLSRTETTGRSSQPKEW

recombinant human mature IL-18 (from UniProt Q14116 37-193) (ligand)
EC50-SEAP, HEK-Blue IL-18 reporter cells, rhIL-18 titrated in medium alone (row 'Human rIL-18') [1]: 31.7 pg/mL
EC50-SEAP, HEK-Blue IL-18 reporter cells, rhIL-18 titrated in medium with 1.25 µg/ml rhIL-18BP (row 'Human rIL-18 + BP') [2]: > 1 ng/mL
EC50-SEAP (HEK Blue IL-18), fold attenuation by 1.25 µg/ml hrIL-18-BP [3]: > 1000 fold
